Measured values reported in US20060019335A1, “Compositions and methods to promote c-IAP autodegradation” (priority 2004, published 2006).

T1: Livin β (Homo sapiens, UniProt Q96CA5)
T1 construct: expressed in transfected cells; host or cells: HeLa
T1 sequence (Q96CA5 1-280 isoform Q96CA5-2): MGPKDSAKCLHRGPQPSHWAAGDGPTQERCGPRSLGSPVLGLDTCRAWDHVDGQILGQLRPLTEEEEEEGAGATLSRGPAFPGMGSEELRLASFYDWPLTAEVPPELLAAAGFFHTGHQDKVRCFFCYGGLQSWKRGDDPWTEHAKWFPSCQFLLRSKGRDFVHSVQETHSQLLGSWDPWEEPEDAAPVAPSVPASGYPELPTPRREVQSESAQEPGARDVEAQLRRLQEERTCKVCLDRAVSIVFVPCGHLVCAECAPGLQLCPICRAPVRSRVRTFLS


Legend:
c-IAP2 = target: T2, c-IAP2 (Homo sapiens, UniProt Q13489); assay: In vitro ubiquitylation assay of c-IAP2; assay type: biochemical; details: data not shown
T2 construct: produced not only the expected full length c-IAP1 or c-IAP2; expressed in transfected cells; host or cells: HeLa
Protocol: (§1) In vitro ubiquitylation assays—In vitro ubiquitylation assays were carried out as previously described (29). IAP proteins (200 nM) were incubated with or without Smac polypeptide for 2 hours at 30° C. in a reaction system containing 50 mM Tris-HCl (pH 7.5), 50 mM NaCl, 2 mM Mg-ATP, 20 μM mammalian ubiquitin, 100 nM rabbit ubiquitin-activating enzyme (E1) and 400 nM of recombinant human ubiquitin-conjugating enzymes (E2). The reactions were stopped by adding equal volumes of 2×SDS sample loading buffer followed by Western Blot analysis.
The observation that Smac promotes c-IAP1 auto-ubiquitylation in HeLa cells was further confirmed in vitro by using UbCH6 as the E2.

Livin β = target: T1, Livin β; assay: Co-transfection of HeLa cells with Livin β and Smac plasmids, Western blot; assay type: cell-based; details: data not shown
Protocol: Transfection of cultured Cells—HeLa cells were grown in DMEM supplemented with 10% fetal bovine serum. Cells were seeded onto 6-well plates the day before transfection and transfected at 70% confluence by using Lipofectin combined with Plus reagent (Invitrogen) according to the manufacture's protocols. The IAP expression plasmids (3 μg each for c-IAP1, c-IAP2 and XIAP, and 250 ng each for Livin αand Livin β) together with 2.5 μg of Smac expression plasmids or pcDNA3.1(−) blank plasmid were used for single-well transfection in the absence of antibiotics. The cells were harvested 12 hours after the transfection and lysed with 0.5% CHAPS in 20 mM HEPES (pH 7.4), 10 mM KCl, 1 mM MgCl2 and 1 mM DTT. The lysates were centrifuged and the protein concentrations of the supernatants were quantified by the modified Bradford method (36).
Western Blot analysis—Proteins were resolved by SDS-PAGE and transferred to nitrocellulose filters. The filters were blocked with 5% milk and probed with antibodies as indicated. The signals were visualized with the enhanced chemiluminescence method.
In the current study, Livin was also transiently expressed in HeLa cells to determine the ubiquitylation activity (see FIG. 3B). Briefly, Livin α WT or H269A mutant plasmids together with Smac WT or Smac ΔA mutant, or with pcDNA3.1(−) blank plasmid, were co-transfected into HeLa cells. […]

XIAP = XIAP (Homo sapiens, UniProt P98170); assay: In vitro ubiquitylation assay of purified XIAP; assay type: biochemical
Protocol: as §1
To determine whether Smac promotes auto-ubiquitylation of XIAP, purified XIAP (without tag) was incubated for 2 hours at 30° C. either with or without different concentrations of Smac or with Smac ΔA in the reconstituted ubiquitylation reaction system (Ub Mix) consisting of 50 mM Tris-HCl (pH 7.5), 50 mM NaCl, 2 mM Mg-ATP, 20 μM mammalian ubiquitin, 100 nM rabbit ubiquitin-activating enzyme (E1) and 400 nM UbCH6 (E2). The reactions were stopped by adding equal volumes of 2×SDS sample loading buffer and the products were subjected to SDS-PAGE followed by immunoblotting with anti-XIAP antibody. The purified XIAP was active in directing poly-ubiquitylation. But the auto-ubiquitylation of XIAP was not enhanced by Smac.

XIAP, sequence (P98170 whole entry): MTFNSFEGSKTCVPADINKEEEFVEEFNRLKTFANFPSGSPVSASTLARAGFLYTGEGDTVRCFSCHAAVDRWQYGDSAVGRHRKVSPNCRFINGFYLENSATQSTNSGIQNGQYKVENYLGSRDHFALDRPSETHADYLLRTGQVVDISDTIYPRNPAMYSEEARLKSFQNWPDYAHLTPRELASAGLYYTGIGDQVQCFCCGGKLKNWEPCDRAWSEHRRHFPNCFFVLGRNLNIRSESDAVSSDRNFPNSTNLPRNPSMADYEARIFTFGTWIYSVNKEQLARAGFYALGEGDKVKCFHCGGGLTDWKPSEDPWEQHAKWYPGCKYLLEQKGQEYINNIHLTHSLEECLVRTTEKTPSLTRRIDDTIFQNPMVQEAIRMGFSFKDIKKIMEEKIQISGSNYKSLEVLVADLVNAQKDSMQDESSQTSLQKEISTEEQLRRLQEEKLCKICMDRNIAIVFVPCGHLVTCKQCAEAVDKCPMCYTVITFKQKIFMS
T2 sequence (Q13489 whole entry): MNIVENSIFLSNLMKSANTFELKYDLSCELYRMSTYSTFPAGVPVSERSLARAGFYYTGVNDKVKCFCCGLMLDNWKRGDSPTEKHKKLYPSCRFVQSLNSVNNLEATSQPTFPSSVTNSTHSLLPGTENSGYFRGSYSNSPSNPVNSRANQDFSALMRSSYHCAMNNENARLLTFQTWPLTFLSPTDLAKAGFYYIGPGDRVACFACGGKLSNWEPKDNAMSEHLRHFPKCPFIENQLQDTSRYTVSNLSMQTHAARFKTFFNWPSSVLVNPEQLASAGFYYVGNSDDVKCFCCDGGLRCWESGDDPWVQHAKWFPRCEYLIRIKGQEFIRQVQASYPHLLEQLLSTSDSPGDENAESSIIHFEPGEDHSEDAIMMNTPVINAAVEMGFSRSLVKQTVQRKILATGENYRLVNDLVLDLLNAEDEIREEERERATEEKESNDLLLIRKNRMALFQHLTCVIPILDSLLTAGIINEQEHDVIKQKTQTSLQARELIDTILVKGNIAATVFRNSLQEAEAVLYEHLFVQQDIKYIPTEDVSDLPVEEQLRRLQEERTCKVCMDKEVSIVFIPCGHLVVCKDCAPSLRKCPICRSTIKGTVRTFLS

| c-IAP2 auto-ubiquitylation in vitro (c-IAP2) | transfection results of Livin β (auto-ubiquitylation, degradation) (Livin β) | amount of ubiquitylated forms of XIAP with a high molecular weight of ~150 kDa (XIAP; UbCH6 as E2, FIG. 6) | auto-ubiquitylation of XIAP in vitro (XIAP; purified XIAP without tag, UbCH6 as E2, 2 hours at 30° C., FIG. 6) | Molecule |
| --- | --- | --- | --- | --- |
| did not promote the E3 activity | – | – | – | Smac ΔA: Smac mutant lacking the initial Ala (Ala deletion mutant polypeptide), used as negative control (protein, UniProt Q9NR28 22-239, looked up, variant A1*) Diablo IAP-binding …: LCVPVVANFKKRCFSELIRPWHKTVTIGFGVTLCVPIAQKSEPHSLSSEALMRRAVSLVTDSTSTFLSQTTYALIEAITEYTKAVYTLTSLYRQYTSLLGKMNSEEEDEVWQVIIGARAEMTSKHQEYLKLETTWMTAVGLSEMAAEAAYQTGADQASITARNHIQLVKLQVEEVHQLSRKAETKLAEAQIEELRQKTQEEGEERAESEQEAYLRED |
| – | substantially similar to that of Livin α | slightly reduced | not enhanced | Smac: wild type (WT) Smac polypeptide from Homo sapiens, SEQ ID NO 1, 239 amino acids; second mitochondria-derived activator of caspase (protein, listed as Homo sapiens) MAALKSWLSRSVTSFFRYRQCLCVPVVANFKKRCFSELIRPWHKTVTIGFGVTLCAVPIAQKSEPHSLSSEALMRRAVSLVTDSTSTFLSQTTYALIEAITEYTKAVYTLTSLYRQYTSLLGKMNSEEEDEVWQVIIGARAEMTSKHQEYLKLETTWMTAVGLSEMAAEAAYQTGADQASITARNHIQLVKLQVEEVHQLSRKAETKLAEAQIEELRQKTQEEGEERAESEQEAYLRED |
